Measured values published in article PMC2927781 (2010).
Where no end group is shown, it is not given here. Me2 = dimethyl

How the values were obtained:
[1] = target: T1, PHD_(Pygo2)–HD1_(BCL9) complex (human, UniProt Q9BRQ0 327-387; O00512 177-205); test: ITC
T1 chain: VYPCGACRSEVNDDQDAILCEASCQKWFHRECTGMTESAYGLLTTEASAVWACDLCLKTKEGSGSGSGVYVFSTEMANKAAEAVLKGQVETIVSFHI

[2] = target: T2, PHD_(Pygo1)–HD1_(BCL9) complex (6×His-tagged, PHD linked to HD1) (human, UniProt Q9Y3Y4 340-400; O00512 177-205); test: ITC
T2 chain: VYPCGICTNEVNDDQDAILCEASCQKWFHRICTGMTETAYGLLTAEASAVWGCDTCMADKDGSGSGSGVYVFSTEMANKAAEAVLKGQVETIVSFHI

ARTK(Me2)QTARKSTGGKA [15-mer H3K4me2 histone tail peptide (histone H3 tail dimethylated at lysine 4)] was tested, and the Kd [1] was 2020 nM and the Kd [2] was 3320 nM.
